Target: bacterially expressed beta18 (Drosophila)
Assay: chymotrypsin protection

Sequence of bacterially expressed beta18 (Drosophila) (Q00963 whole entry): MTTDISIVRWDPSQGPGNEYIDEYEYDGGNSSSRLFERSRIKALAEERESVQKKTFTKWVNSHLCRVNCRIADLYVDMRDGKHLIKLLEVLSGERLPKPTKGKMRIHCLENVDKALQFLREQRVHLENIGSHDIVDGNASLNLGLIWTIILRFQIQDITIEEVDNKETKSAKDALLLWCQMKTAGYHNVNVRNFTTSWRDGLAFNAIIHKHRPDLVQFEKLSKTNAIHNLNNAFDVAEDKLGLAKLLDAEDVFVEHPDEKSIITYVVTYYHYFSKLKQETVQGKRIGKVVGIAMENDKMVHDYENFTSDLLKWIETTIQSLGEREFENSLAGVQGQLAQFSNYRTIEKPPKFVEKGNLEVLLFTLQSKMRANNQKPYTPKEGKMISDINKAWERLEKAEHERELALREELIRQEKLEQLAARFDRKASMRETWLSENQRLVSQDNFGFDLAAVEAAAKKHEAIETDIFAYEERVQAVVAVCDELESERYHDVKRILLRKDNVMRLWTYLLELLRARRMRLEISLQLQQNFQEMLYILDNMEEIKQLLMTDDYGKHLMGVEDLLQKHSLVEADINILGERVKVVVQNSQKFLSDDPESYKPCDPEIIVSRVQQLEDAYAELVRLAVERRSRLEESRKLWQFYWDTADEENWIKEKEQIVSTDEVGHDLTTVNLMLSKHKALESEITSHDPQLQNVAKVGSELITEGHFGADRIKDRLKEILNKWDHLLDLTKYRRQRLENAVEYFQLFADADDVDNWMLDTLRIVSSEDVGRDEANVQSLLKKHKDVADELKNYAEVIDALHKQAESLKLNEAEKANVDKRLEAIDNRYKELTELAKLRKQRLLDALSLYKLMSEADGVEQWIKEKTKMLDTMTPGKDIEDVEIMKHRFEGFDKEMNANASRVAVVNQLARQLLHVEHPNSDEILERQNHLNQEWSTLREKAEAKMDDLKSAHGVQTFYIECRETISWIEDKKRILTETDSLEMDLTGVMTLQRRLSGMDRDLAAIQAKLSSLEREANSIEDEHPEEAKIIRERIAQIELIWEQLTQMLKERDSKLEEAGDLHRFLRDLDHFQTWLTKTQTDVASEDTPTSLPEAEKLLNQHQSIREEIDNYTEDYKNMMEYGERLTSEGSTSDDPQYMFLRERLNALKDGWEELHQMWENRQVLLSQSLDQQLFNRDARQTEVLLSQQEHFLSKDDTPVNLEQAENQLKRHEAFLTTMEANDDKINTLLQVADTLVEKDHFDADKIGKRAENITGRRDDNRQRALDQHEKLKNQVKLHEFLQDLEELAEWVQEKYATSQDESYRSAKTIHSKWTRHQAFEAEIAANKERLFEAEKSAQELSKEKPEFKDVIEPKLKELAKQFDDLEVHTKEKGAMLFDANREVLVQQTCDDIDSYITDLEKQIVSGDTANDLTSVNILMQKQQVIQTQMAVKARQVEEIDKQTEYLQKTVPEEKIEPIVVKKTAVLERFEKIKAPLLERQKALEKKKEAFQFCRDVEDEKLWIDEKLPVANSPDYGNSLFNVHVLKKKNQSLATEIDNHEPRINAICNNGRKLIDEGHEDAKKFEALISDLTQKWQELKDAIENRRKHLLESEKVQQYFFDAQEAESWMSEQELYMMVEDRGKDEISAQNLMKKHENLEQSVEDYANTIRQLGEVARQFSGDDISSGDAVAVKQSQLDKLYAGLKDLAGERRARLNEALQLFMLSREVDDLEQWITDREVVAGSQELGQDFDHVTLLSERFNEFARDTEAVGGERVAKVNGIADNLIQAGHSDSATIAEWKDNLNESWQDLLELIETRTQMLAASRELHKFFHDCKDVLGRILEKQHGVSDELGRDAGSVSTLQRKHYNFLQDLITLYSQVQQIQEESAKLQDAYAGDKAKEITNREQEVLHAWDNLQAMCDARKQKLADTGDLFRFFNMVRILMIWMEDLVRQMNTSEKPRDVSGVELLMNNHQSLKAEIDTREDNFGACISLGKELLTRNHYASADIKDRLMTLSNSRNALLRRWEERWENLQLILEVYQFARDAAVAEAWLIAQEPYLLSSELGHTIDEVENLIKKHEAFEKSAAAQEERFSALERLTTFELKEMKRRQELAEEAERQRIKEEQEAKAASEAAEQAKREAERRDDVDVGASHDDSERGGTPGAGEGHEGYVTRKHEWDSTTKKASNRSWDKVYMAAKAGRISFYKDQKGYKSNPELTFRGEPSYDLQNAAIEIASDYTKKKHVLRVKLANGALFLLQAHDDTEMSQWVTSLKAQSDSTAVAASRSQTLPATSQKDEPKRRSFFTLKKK

B1: bacterially expressed alpha0-1(R22S) (domain or fragment)
chain: MENFTPKEVKILETVEDIQERSEQVLSRYNDFKIETRQKREKLEDSRRFQYFKRDADELESWIHEKLQAASEESYRDPTNLQAKIQKHQAFEAEVSAHSNAIVSLDNTGQEMINQQHFASESIQVRLDELHKLWELLLSRLAEKGLKLQQ
Work on B1 yielded a percent intact (chymotrypsin protection, beta18 present) of 61.2%.

— paper PMC2120337
